Experimental data reported in article PMC5819227.

Biological target: Enc-I3-01-MhIHL-V54L (engineered ketohydroxyglutarate aldolase from T. maritima fused at its C terminus to the (+)-γ-lactamase mutant MhIHL-V54L from Microbacterium hydrocarbonoxydans) (Thermotoga maritima | Microbacterium hydrocarbonoxydans)
Assay: negative-stain transmission electron microscopy; purified protein at 1.33 mg/mL adsorbed onto copper grids, stained with 3% uranyl acetate

Substance “Enc-I3-01-MhIHL-V54L (engineered ketohydroxyglutarate aldolase from T. maritima fused at its C terminus to the (+)-γ-lactamase mutant MhIHL-V54L from Microbacterium hydrocarbonoxydans)” has a stoichiometry N of 60 subunits.
